Assay results as given in PMC9482650, “Quantitative fragmentomics allow affinity mapping of interactomes” (Nature Communications, 2022).
Positions count from the first letter of the chain named.

Key:
Assay in all cases: holdup assay
Set-up in all cases: key: below the threshold = too weak to quantify, mostly under pKd 3.1 to 4
[1] = target: DLG4_2, P78352
[2] = target: FRMPD4, Q14CM0
[3] = target: T1, APBA1_2, Q02410
T1 sequence (Q02410 742-832, limits assumed, looked up): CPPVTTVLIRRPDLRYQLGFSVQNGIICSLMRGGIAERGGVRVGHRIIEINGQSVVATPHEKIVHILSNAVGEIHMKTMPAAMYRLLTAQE

[4] = target: GRIP2_6, Q9C0E4
Chain of GRIP2_6, Q9C0E4 (Q9C0E4 648-740): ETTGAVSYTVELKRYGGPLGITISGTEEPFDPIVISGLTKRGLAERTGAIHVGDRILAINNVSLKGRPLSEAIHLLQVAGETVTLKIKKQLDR

[5] = target: Inadl_10, Q8NI35
Chain of Inadl_10, Q8NI35 (Q8NI35 1673-1763): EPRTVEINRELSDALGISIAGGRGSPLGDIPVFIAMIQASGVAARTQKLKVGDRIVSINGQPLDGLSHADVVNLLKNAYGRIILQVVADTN

[6] = target: LNX1_3, Q8TBB1
Chain of LNX1_3, Q8TBB1 (Q8TBB1 500-596): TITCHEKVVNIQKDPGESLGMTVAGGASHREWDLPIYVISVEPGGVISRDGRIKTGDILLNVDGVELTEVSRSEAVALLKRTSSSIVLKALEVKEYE

[7] = target: T2, PDZRN3_1, Q9UPQ7
T2 sequence (Q9UPQ7 244-349, limits assumed, looked up): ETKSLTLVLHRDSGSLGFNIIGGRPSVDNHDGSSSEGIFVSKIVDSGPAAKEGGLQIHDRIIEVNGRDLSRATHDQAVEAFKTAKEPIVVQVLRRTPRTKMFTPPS

[8] = target: IL16_1, Q14005
Chain of IL16_1, Q14005 (Q14005 210-306): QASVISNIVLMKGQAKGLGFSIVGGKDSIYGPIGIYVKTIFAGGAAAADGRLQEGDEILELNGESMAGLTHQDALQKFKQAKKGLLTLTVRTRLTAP

[9] = target: T3, NHERF3_1, Q5T2W1
T3 sequence (Q5T2W1 4-100, limits assumed, looked up): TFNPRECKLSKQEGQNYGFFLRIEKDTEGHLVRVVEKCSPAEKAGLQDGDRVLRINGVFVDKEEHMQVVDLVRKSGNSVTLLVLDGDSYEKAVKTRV

[10] = target: T4, LNX2_3, Q8N448
T4 sequence (Q8N448 463-564, limits assumed, looked up): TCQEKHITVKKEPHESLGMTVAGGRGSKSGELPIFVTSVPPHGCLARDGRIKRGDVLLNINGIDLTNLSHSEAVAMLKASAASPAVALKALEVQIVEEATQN

[11] = target: T5, ARHGAP21, Q5T5U3
T5 sequence (Q5T5U3 45-169, limits assumed, looked up): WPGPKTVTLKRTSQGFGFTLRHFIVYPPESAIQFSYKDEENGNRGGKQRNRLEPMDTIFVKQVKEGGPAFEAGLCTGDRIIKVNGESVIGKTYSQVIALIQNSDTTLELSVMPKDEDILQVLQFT

[12] = target: T6, MPP7, Q5T2T1
T6 sequence (Q5T2T1 134-230, limits assumed, looked up): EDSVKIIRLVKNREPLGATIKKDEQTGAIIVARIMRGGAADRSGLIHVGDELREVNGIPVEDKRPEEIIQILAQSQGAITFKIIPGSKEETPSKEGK

[13] = target: PTPN3, P26045
Chain of PTPN3, P26045 (P26045 505-587): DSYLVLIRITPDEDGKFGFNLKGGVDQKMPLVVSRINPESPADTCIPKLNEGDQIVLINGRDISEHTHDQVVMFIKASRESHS

[14] = target: T7, MPP2, Q14168
T7 sequence (Q14168 180-250, limits assumed, looked up): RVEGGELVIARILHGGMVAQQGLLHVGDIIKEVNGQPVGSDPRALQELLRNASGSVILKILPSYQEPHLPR

[15] = target: T8, SNTG1, Q9NSN8
T8 sequence (Q9NSN8 52-150, limits assumed, looked up): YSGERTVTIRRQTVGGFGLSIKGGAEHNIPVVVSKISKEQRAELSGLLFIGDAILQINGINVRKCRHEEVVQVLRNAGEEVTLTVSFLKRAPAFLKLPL

[16] = target: T9, PCLO, Q9Y6V0
T9 sequence (Q9Y6V0 4491-4600, limits assumed, looked up): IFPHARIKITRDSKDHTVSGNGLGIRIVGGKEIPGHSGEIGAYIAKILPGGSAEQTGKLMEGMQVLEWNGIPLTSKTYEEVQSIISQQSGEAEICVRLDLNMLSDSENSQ

[17] = target: IL16_3, Q14005
Chain of IL16_3, Q14005 (Q14005 1107-1207): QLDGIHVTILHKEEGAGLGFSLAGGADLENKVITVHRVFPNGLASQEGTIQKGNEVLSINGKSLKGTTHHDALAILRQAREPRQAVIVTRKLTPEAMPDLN

[18] = target: DLG1_1, Q12959
[19] = target: GRID2IP_2, A4D2P6
Chain of GRID2IP_2, A4D2P6 (A4D2P6 272-370): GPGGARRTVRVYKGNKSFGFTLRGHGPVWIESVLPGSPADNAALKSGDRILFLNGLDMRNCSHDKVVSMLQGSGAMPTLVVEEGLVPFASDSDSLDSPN

[20] = target: GRIP2_5, Q9C0E4
Chain of GRIP2_5, Q9C0E4 (Q9C0E4 544-642): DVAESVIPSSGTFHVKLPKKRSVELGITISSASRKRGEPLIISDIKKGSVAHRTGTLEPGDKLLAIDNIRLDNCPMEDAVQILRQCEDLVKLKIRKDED

[21] = target: TJP1_3, Q07157
Chain of TJP1_3, Q07157 (Q07157 416-512): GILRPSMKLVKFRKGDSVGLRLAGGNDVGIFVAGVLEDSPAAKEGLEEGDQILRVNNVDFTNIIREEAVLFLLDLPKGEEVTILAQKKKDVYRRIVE

[22] = target: GRIP2_3, Q9C0E4
Chain of GRIP2_3, Q9C0E4 (Q9C0E4 238-339): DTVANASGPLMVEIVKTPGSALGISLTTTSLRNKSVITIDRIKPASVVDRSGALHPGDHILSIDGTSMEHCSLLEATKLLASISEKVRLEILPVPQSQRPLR

[23] = target: T10, APBA2_2, Q99767
T10 sequence (Q99767 654-744, limits assumed, looked up): T1 sequence (Q02410 742-832, limits assumed, looked up) with R10K, R15K, P59A, H65Q, I66A, A70S, Y84F, A89G

[24] = target: MAGI2_4, Q86UL8
Chain of MAGI2_4, Q86UL8 (Q86UL8 772-865): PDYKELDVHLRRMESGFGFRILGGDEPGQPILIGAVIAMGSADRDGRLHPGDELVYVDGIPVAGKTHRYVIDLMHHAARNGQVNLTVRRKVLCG

[25] = target: MAGI2_5, Q86UL8
Chain of MAGI2_5, Q86UL8 (Q86UL8 915-1017): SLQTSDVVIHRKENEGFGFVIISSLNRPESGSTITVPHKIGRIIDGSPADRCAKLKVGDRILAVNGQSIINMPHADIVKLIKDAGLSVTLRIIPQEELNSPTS

[26] = target: SCRIB_3, Q14160
Chain of SCRIB_3, Q14160 (Q14160 999-1103): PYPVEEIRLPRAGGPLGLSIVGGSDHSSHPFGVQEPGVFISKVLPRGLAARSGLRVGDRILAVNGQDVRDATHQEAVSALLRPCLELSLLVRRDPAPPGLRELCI

[27] = target: LNX1_1, Q8TBB1
Chain of LNX1_1, Q8TBB1 (Q8TBB1 261-371): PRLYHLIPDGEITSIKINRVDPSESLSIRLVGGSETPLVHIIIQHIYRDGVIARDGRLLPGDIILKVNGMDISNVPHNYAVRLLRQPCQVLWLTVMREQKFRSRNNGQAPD

[28] = target: GRIP2_4, Q9C0E4
Chain of GRIP2_4, Q9C0E4 (Q9C0E4 446-548): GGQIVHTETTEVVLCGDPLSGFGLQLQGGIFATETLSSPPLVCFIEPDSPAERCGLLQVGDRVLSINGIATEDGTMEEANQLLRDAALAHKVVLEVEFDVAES

[29] = plain residues with an end cap or a label only (N-terminal biotin on a linker: ado-ado)
[30] = plain residues with an end cap or a label only (N-terminal biotin on a linker: ahx)
[31] = plain residues with an end cap or a label only (N-terminal biotin on a linker: (peg)3)

Chain of DLG4_2, P78352 (P78352 155-259): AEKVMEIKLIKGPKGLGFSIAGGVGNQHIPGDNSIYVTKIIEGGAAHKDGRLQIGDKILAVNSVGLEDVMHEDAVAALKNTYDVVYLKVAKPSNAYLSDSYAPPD
Chain of FRMPD4, Q14CM0 (Q14CM0 67-160): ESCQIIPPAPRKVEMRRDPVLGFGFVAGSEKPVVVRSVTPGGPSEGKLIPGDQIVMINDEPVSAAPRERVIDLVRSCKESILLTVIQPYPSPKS

DPAESMESLV [PTPRG, P23470]
pKd [1, 29]: 5.01
pKd [2, 29]: 3.58
pKd [3, 29]: below the threshold
pKd [4, 29]: below the threshold
pKd [5, 29]: below the threshold
pKd [6, 29]: below the threshold
pKd [7, 29]: 3.96
pKd [8, 29]: 4.53
pKd [9, 29]: 4.7
pKd [10, 29]: below the threshold
pKd [11, 29]: below the threshold
pKd [12, 29]: below the threshold
pKd [13, 29]: 4.61
pKd [14, 29]: below the threshold
pKd [15, 29]: 4.66
pKd [16, 29]: below the threshold
pKd [17, 29]: below the threshold
pKd [18, 29]: 4.45
pKd [19, 29]: below the threshold
pKd [20, 29]: below the threshold
pKd [21, 29]: below the threshold
pKd [22, 29]: below the threshold
pKd [23, 29]: below the threshold
pKd [24, 29]: 4.25
pKd [25, 29]: 5.32
pKd [26, 29]: 3.92
pKd [27, 29]: 4.06
pKd [28, 29]: below the threshold

QPRTWLQSPV [RTKN, Q9BST9]
pKd [1, 30]: 4.27
pKd [2, 30]: below the threshold
pKd [3, 30]: below the threshold
pKd [4, 30]: below the threshold
pKd [5, 30]: below the threshold
pKd [6, 30]: below the threshold
pKd [7, 30]: below the threshold
pKd [8, 30]: 3.95
pKd [9, 30]: 4.29
pKd [10, 30]: below the threshold
pKd [11, 30]: below the threshold
pKd [12, 30]: below the threshold
pKd [13, 30]: 3.78
pKd [14, 30]: below the threshold
pKd [15, 30]: 3.52
pKd [16, 30]: below the threshold
pKd [17, 30]: below the threshold
pKd [18, 30]: 3.74
pKd [19, 30]: below the threshold
pKd [20, 30]: below the threshold
pKd [21, 30]: below the threshold
pKd [22, 30]: below the threshold
pKd [23, 30]: below the threshold
pKd [24, 30]: below the threshold
pKd [25, 30]: 4.33
pKd [26, 30]: 3.67
pKd [27, 30]: below the threshold
pKd [28, 30]: below the threshold

EIPAQSPTCV [FZD10, Q9ULW2]
pKd [1, 29]: 4.11
pKd [2, 29]: 3.75
pKd [3, 29]: 4.77
pKd [4, 29]: 3.74
pKd [5, 29]: 3.55
pKd [6, 29]: below the threshold
pKd [7, 29]: below the threshold
pKd [8, 29]: 3.79
pKd [9, 29]: below the threshold
pKd [10, 29]: 3.78
pKd [11, 29]: 4.12
pKd [12, 29]: below the threshold
pKd [13, 29]: 3.77
pKd [14, 29]: below the threshold
pKd [15, 29]: 3.83
pKd [16, 29]: 3.47
pKd [17, 29]: below the threshold
pKd [18, 29]: 3.85
pKd [19, 29]: 3.67
pKd [20, 29]: 3.7
pKd [21, 29]: 3.65
pKd [22, 29]: 3.61
pKd [23, 29]: 3.63
pKd [24, 29]: 3.65
pKd [25, 29]: 3.67
pKd [26, 29]: 3.99
pKd [27, 29]: below the threshold
pKd [28, 29]: below the threshold

RYEDTTLVEDTVL [WNV-NS5, Q9Q6P4]
pKd [1, 31]: 3.7
pKd [2, 31]: 4.85
pKd [3, 31]: below the threshold
pKd [4, 31]: below the threshold
pKd [5, 31]: below the threshold
pKd [6, 31]: below the threshold
pKd [7, 31]: 3.61
pKd [8, 31]: below the threshold
pKd [9, 31]: 4.43
pKd [10, 31]: below the threshold
pKd [11, 31]: 5.01
pKd [12, 31]: below the threshold
pKd [13, 31]: 4.37
pKd [14, 31]: below the threshold
pKd [15, 31]: below the threshold
pKd [16, 31]: below the threshold
pKd [17, 31]: below the threshold
pKd [18, 31]: 3.58
pKd [19, 31]: 3.72
pKd [20, 31]: below the threshold
pKd [21, 31]: below the threshold
pKd [22, 31]: below the threshold
pKd [23, 31]: below the threshold
pKd [24, 31]: below the threshold
pKd [25, 31]: below the threshold
pKd [26, 31]: 3.97
pKd [27, 31]: 3.74
pKd [28, 31]: below the threshold
